Target: HA70 of BoNT/A (full-length, residues M1–N626) (Clostridium botulinum strain 62A (BoNT/A1-producing))
Assay: ITC; […] ([…]) […] (400 µM) […]; 23°C; 50 mM Tris pH 7.6, 100 mM NaCl; […]

synthetic nLoop peptide of NTNHA (from UniProt Q45914 116-148)
Kd: 0.34 µM | stoichiometry N (nLoop per HA70 trimer): 1

Reference: PMC3795040
